The target in experiment [1] is FV-810 (FV-DT), Factor V with amino acids 811-1491 deleted from the B-domain (human) (UniProt P12259). Put plainly: fluorescence anisotropy displacement of OG488-BR; FXaS195A titrated into 30 nM OG488-BR, 20 nM FV-810, 50 uM PCPS. A general note: Polarisation of emitted light reports the rotation of a fluorescent probe.
The target is the same in experiment [2]. Put plainly: fluorescence anisotropy, displacement; FXa S195A titrated into 30 nM OG488-BR, 20 nM FV-810, 50 uM PCPS, 25 C; displaced ligand: OG488-BR.
For experiment [3] the target is unchanged. The experiment can be described thus: global fit of prethrombin-2 activation rates (1-50 nM FXa, 0-1000 nM BR, 5 nM FV-810, 50 uM PCPS) to a tight, competitive binding model.
The target in experiment [4] is T1, Oregon Green 488 maleimide-modified BR (OG488-BR) (human, Oregon Green 488 maleimide on the added N-terminal Cys).
T1 construct: also called fluorescently labeled FVBR
T1 peptide: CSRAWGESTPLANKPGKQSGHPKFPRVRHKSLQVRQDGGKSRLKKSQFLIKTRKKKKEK
The experiment can be described thus: fluorescence anisotropy; buffer-pretreated FV-810 R709Q titrated into 30 nM OG488-BR with 50 uM PCPS. The protocol: (§1) FV-810, FV-810^R709Q (▴), FV-810^R1545Q (♦), and FV-810^QQ (▪) were pretreated with buffer (FIG. 14A) or thrombin (FIG. 14B).
(§2) Steady-state fluorescence anisotropy was measured at 25° C. in a PTI Quanta-Master™ fluorescence spectrophotometer (Photon Technology International, Birmingham, N.J.) using excitation and emission wavelengths of 480 and 520 nm, respectively, with long-pass filters (KV500, CVI Melles Griot) in the emission beam.

Experiment [5] concerns the target T1, Oregon Green 488 maleimide-modified BR …. The experiment can be described thus: fluorescence anisotropy; buffer-pretreated FV-810 R1545Q titrated into 30 nM OG488-BR with 50 uM PCPS. The protocol:
as §1, §2

The target in experiment [6] is FV-810 (FV-DT), Factor V with amino acids 811-1491 deleted from the B-domain (human) (UniProt P12259). The experiment can be described thus: fluorescence anisotropy displacement of OG488-BR; 30 nM OG488-BR, 20 nM FV-810, 50 uM PCPS; stoichiometry of 1 assumed.
Target sequence in this assay (P12259 other isoform, or with tags, fused parts or gaps, form in doubt): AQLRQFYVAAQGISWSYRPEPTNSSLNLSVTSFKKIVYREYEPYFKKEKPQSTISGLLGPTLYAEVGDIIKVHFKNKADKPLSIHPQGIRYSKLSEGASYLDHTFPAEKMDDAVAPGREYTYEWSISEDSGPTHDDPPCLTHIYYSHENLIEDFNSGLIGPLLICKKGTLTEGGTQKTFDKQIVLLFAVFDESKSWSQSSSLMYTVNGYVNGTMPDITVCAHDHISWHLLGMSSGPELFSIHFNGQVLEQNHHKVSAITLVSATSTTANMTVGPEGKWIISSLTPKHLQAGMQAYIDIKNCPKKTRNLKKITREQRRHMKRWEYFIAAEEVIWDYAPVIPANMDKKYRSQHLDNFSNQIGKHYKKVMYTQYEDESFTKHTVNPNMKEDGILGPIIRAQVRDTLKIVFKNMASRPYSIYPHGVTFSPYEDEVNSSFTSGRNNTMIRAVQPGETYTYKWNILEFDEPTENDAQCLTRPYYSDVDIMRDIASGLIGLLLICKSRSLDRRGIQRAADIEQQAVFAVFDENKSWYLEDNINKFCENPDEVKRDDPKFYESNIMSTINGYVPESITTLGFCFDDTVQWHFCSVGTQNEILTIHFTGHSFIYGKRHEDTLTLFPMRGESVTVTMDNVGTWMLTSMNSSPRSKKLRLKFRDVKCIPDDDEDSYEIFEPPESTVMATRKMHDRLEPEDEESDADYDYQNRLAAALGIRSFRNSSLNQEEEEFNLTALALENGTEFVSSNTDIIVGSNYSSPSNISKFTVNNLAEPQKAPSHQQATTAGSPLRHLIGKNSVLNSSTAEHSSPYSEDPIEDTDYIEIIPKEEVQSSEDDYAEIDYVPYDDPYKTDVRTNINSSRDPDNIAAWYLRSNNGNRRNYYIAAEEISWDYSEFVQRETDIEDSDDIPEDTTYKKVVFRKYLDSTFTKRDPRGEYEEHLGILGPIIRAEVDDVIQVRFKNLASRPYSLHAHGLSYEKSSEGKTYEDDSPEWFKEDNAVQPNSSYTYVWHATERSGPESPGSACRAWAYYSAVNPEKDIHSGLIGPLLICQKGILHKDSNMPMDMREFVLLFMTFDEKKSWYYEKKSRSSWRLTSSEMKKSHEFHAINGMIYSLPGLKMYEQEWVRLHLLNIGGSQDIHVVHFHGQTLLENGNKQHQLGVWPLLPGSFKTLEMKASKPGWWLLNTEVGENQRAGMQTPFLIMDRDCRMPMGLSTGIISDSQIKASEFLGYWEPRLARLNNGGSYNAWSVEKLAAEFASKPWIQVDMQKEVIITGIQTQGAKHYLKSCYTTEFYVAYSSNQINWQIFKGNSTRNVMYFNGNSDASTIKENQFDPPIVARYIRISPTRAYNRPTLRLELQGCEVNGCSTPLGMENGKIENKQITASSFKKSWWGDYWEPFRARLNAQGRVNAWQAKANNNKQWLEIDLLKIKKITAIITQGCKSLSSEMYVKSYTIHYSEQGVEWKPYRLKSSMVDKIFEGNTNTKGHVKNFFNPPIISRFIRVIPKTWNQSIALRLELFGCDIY
Experiment [7] shares this target. Put plainly: fluorescence anisotropy, displacement; bovine BR titrated into 30 nM OG488-BR, 20 nM FV-810, 50 uM PCPS, 25 C; competitor: OG488-BR.
The target is the same in experiment [8]. Put plainly: fluorescence anisotropy displacement of OG488-BR.

The values below come from US20160222085A1 (CHILDREN S HOSPITAL OF PHILADELPHIA, published 2016).

The term Kd denotes the free concentration of one partner at which half of the binding sites on the other are occupied at equilibrium, for simple one-to-one binding. As a reminder, the EC50 (read off the curve) is the midpoint of the concentration-response curve.

Consider “catalytically inactive FXa^S195A (from UniProt P00742 41-179; P00742 235-488) (enzyme)”, for which, in experiment [1], the n (stoichiometry) (mol of FXa/mol of FV-810) was determined as 1.1. Further, the IC50 (read off the curve) in experiment [2] stood at 40 nM.

The molecule “Factor Xa (FXa) (from UniProt P00742 41-179; P00742 235-488) (enzyme)” gave a dissociation constant (Kd) in experiment [3] of 2 nM.

B1: FV-810^R709Q (other, human, UniProt P12259 29-838, looked up)
chain: AQLRQFYVAAQGISWSYRPEPTNSSLNLSVTSFKKIVYREYEPYFKKEKPQSTISGLLGPTLYAEVGDIIKVHFKNKADKPLSIHPQGIRYSKLSEGASYLDHTFPAEKMDDAVAPGREYTYEWSISEDSGPTHDDPPCLTHIYYSHENLIEDFNSGLIGPLLICKKGTLTEGGTQKTFDKQIVLLFAVFDESKSWSQSSSLMYTVNGYVNGTMPDITVCAHDHISWHLLGMSSGPELFSIHFNGQVLEQNHHKVSAITLVSATSTTANMTVGPEGKWIISSLTPKHLQAGMQAYIDIKNCPKKTRNLKKITREQRRHMKRWEYFIAAEEVIWDYAPVIPANMDKKYRSQHLDNFSNQIGKHYKKVMYTQYEDESFTKHTVNPNMKEDGILGPIIRAQVRDTLKIVFKNMASRPYSIYPHGVTFSPYEDEVNSSFTSGRNNTMIRAVQPGETYTYKWNILEFDEPTENDAQCLTRPYYSDVDIMRDIASGLIGLLLICKSRSLDRRGIQRAADIEQQAVFAVFDENKSWYLEDNINKFCENPDEVKRDDPKFYESNIMSTINGYVPESITTLGFCFDDTVQWHFCSVGTQNEILTIHFTGHSFIYGKRHEDTLTLFPMRGESVTVTMDNVGTWMLTSMNSSPRSKKLRLKFRDVKCIPDDDEDSYEIFEPPESTVMATRKMHDRLEPEDEESDADYDYQNRLAAALGIQSFRNSSLNQEEEEFNLTALALENGTEFVSSNTDIIVGSNYSSPSNISKFTVNNLAEPQKAPSHQQATTAGSPLRHLIGKNSVLNSSTAEHSSPYSEDPIEDTDYIEIIPKEEVQSSEDDYAEIDYVPYDDPYKTDVRTNINSSRDPDNIAAWYLRSNNGNRRNYYIAAEEISWDYSEFVQRETDIEDSDDIPEDTTYKKVVFRKYLDSTFTKRDPRGEYEEHLGILGPIIRAEVDDVIQVRFKNLASRPYSLHAHGLSYEKSSEGKTYEDDSPEWFKEDNAVQPNSSYTYVWHATERSGPESPGSACRAWAYYSAVNPEKDIHSGLIGPLLICQKGILHKDSNMPMDMREFVLLFMTFDEKKSWYYEKKSRSSWRLTSSEMKKSHEFHAINGMIYSLPGLKMYEQEWVRLHLLNIGGSQDIHVVHFHGQTLLENGNKQHQLGVWPLLPGSFKTLEMKASKPGWWLLNTEVGENQRAGMQTPFLIMDRDCRMPMGLSTGIISDSQIKASEFLGYWEPRLARLNNGGSYNAWSVEKLAAEFASKPWIQVDMQKEVIITGIQTQGAKHYLKSCYTTEFYVAYSSNQINWQIFKGNSTRNVMYFNGNSDASTIKENQFDPPIVARYIRISPTRAYNRPTLRLELQGCEVNGCSTPLGMENGKIENKQITASSFKKSWWGDYWEPFRARLNAQGRVNAWQAKANNNKQWLEIDLLKIKKITAIITQGCKSLSSEMYVKSYTIHYSEQGVEWKPYRLKSSMVDKIFEGNTNTKGHVKNFFNPPIISRFIRVIPKTWNQSIALRLELFGCDIY
notes: range 1-810;range 1492-2196; mature numbering
B1: the “EC50 (read off the curve)” value in experiment [4] is 15 to 20 nM.

B2: FV-810^R1545Q (other, human, UniProt P12259 29-838, looked up)
chain: AQLRQFYVAAQGISWSYRPEPTNSSLNLSVTSFKKIVYREYEPYFKKEKPQSTISGLLGPTLYAEVGDIIKVHFKNKADKPLSIHPQGIRYSKLSEGASYLDHTFPAEKMDDAVAPGREYTYEWSISEDSGPTHDDPPCLTHIYYSHENLIEDFNSGLIGPLLICKKGTLTEGGTQKTFDKQIVLLFAVFDESKSWSQSSSLMYTVNGYVNGTMPDITVCAHDHISWHLLGMSSGPELFSIHFNGQVLEQNHHKVSAITLVSATSTTANMTVGPEGKWIISSLTPKHLQAGMQAYIDIKNCPKKTRNLKKITREQRRHMKRWEYFIAAEEVIWDYAPVIPANMDKKYRSQHLDNFSNQIGKHYKKVMYTQYEDESFTKHTVNPNMKEDGILGPIIRAQVRDTLKIVFKNMASRPYSIYPHGVTFSPYEDEVNSSFTSGRNNTMIRAVQPGETYTYKWNILEFDEPTENDAQCLTRPYYSDVDIMRDIASGLIGLLLICKSRSLDRRGIQRAADIEQQAVFAVFDENKSWYLEDNINKFCENPDEVKRDDPKFYESNIMSTINGYVPESITTLGFCFDDTVQWHFCSVGTQNEILTIHFTGHSFIYGKRHEDTLTLFPMRGESVTVTMDNVGTWMLTSMNSSPRSKKLRLKFRDVKCIPDDDEDSYEIFEPPESTVMATRKMHDRLEPEDEESDADYDYQNRLAAALGIRSFRNSSLNQEEEEFNLTALALENGTEFVSSNTDIIVGSNYSSPSNISKFTVNNLAEPQKAPSHQQATTAGSPLRHLIGKNSVLNSSTAEHSSPYSEDPIEDTDYIEIIPKEEVQSSEDDYAEIDYVPYDDPYKTDVRTNINSSRDPDNIAAWYLQSNNGNRRNYYIAAEEISWDYSEFVQRETDIEDSDDIPEDTTYKKVVFRKYLDSTFTKRDPRGEYEEHLGILGPIIRAEVDDVIQVRFKNLASRPYSLHAHGLSYEKSSEGKTYEDDSPEWFKEDNAVQPNSSYTYVWHATERSGPESPGSACRAWAYYSAVNPEKDIHSGLIGPLLICQKGILHKDSNMPMDMREFVLLFMTFDEKKSWYYEKKSRSSWRLTSSEMKKSHEFHAINGMIYSLPGLKMYEQEWVRLHLLNIGGSQDIHVVHFHGQTLLENGNKQHQLGVWPLLPGSFKTLEMKASKPGWWLLNTEVGENQRAGMQTPFLIMDRDCRMPMGLSTGIISDSQIKASEFLGYWEPRLARLNNGGSYNAWSVEKLAAEFASKPWIQVDMQKEVIITGIQTQGAKHYLKSCYTTEFYVAYSSNQINWQIFKGNSTRNVMYFNGNSDASTIKENQFDPPIVARYIRISPTRAYNRPTLRLELQGCEVNGCSTPLGMENGKIENKQITASSFKKSWWGDYWEPFRARLNAQGRVNAWQAKANNNKQWLEIDLLKIKKITAIITQGCKSLSSEMYVKSYTIHYSEQGVEWKPYRLKSSMVDKIFEGNTNTKGHVKNFFNPPIISRFIRVIPKTWNQSIALRLELFGCDIY
notes: as for B1
On to B2, for which, in experiment [5], the “EC50 (read off the curve)” value fell in the range of 10 to 15 nM.

B3: Bovine BR (Bos taurus Ser938-Lys996) (peptide, UniProt Q28107 966-1024, looked up)
peptide: SRTWGENIPFKNSHGKQSGHPTFLVTRRKPLQDRQDRRNSRLKEGLPLIRTRRKKKEEK
For the molecule B3, the Kd in experiment [6] amounted to 28.3 nM. This molecule also registered an IC50 (read off the curve) in experiment [7] of 300 to 400 nM. For the same molecule, in experiment [8], the fold weaker binding than the human BR was found to be 10 fold.
